Results taken from publication PMC3741163, “CCL18 Exhibits a Regulatory Role through Inhibition of Receptor and Glycosaminoglycan Binding” (PLoS ONE, 2013).
Several values for one entry are separate records, joined by “and”; a condition that tells them apart may be missing. Equal entries are not always repeated.

T1: CCR3 (UniProt P51677 1-355)
T1 construct: chemokine receptor CCR3 expressed on L1.2 transfectants; also called L1.2/CCR3 transfectants; source: L1.2 transfectants, on cells
T1 sequence (looked up): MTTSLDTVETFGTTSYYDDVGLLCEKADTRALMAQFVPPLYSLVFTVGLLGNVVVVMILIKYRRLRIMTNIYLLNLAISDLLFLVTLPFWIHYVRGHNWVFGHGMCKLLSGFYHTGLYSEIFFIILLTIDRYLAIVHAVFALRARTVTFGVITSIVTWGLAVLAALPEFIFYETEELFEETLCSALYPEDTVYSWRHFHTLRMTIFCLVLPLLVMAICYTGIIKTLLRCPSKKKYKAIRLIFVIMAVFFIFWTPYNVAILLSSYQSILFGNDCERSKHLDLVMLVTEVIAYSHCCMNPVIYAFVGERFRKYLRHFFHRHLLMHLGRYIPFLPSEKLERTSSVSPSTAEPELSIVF


Legend:
[1] = molecular target: T1, CCR3; assay: radioligand binding; equilibrium competition on L1.2/CCR3 transfectants, tracer 0.1 nM 125I-CCL18, 0.1 x10^6 cells/well, competitor 10^-6 to 10^-12 M, room temperature 4 h, filtration; settings: one partner purified
[2] = molecular target: T1, CCR3; assay: cell-based or functional assay
[3] = molecular target: T1, CCR3; assay: cell-based or functional assay; remark: listed apart in the source
[4] = molecular target: T1, CCR3; assay: radioligand binding; equilibrium competition on L1.2/CCR3 transfectants, tracer 0.1 nM 125I-CCL11, 0.1 x10^6 cells/well, competitor 10^-6 to 10^-12 M, room temperature 4 h, filtration; settings: one partner purified

CCL11, sequence (P51671 24-97): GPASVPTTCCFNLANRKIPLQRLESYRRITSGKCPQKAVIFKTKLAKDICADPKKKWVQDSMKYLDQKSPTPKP

Binder | IC50 [1] | IC50 of CCL18 for inhibition of chemotaxis of L1.2/CCR3 transfectants to 1 nM CCL11 (mean of 7) [2] | IC50 of CCL18 for inhibition of chemotaxis of L1.2/CCR3 transfectants to 10 nM CCL5 [2] | IC50 of CCL18 for inhibition of chemotaxis of L1.2/CCR3 transfectants to 10 nM CCL26 [2] | IC50 of CCL18 for inhibition of chemotaxis of L1.2/CCR3 transfectants to 100 nM CCL15 [2] | EC50 of CCL11-induced Ca2+ release in L1.2/CCR3 transfectants in the presence of 0 nM to 5 µM CCL18 (EC50 69.93 nM without CCL18, rising with the concentration) [3] | IC50 of CCL18 for inhibition of chemotaxis of L1.2/CCR3 transfectants to 1 nM CCL11 (experiment shown in Figure 1A) [3] | IC50 [4]
CCL18 (ligand, human, UniProt P55774 21-89, looked up, CCL18 chemokine, unlabelled; also called PARC; MIP-4; source: purchased from PeptroTech or produced as previously described [30]) AQVGTNKELCCLVYTSWQIPQKFIVDYSETSPQCPKPGVILLTKRGRQICADPNKKWVQKYISDLKLNA | 6.8 nM and 8.86 nM | 318 nM | 40.8 nM | 123 nM | 2.9 nM | 10500 nM | 397 nM | –
CCL11 (ligand, CCL11 chemokine, unlabelled; source: purchased from PeptroTech or produced as previously described [30]) not shown | – | – | – | – | – | – | – | 7.4 nM and 13.2 nM
